According to US20210079088A1 (published 2021):
Numbering of substitutions follows the chain as printed.

T1: soluble human IL-4Rα (sIL-4Rα; PEPRO TECH, Catalog Number: 200-04R) (human, UniProt P24394 26-232)
T1 construct: Bought protein; also called shIL-4Rα; soluble hIL-4 Rα
T1 sequence: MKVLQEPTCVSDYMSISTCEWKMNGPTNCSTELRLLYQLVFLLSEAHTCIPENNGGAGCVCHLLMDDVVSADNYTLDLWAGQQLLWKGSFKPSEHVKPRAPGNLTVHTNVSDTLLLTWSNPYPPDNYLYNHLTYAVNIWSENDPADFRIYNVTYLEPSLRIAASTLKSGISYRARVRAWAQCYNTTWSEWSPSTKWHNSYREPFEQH

B1: L1007H1000 (antibody, V domains shown)
VH: EVQLVQSGGGLVHPGGSLRLSCAGSGFTFSRNAMFWVRQAPGKGLEWVSGIGTGGATNYADSVKGRFTISRDNAKNSLYLQMNSLRAEDMAVYYCARGRYYFDYWGQGTLVTVSS
VL: not shown
B2: L1021H1031 (antibody, V domains shown)
VH: B1 VH with Q6E, H13Q, G24A, N58S, M90T
VL: EIVLTQSPGTLSLSPGERATLSCRASQSVSSSYLAWYQQKPGQAPRLLIFGASSRAPGIPDRFSGSGSGTDFTLTISRLEPEDFAVYYCQQYDHSAGWTFGQGTKVEIK
B3: L1012H1007 (antibody, V domains shown)
VH: B1 VH with N58S
VL: not shown
B4: L1012H1029 (antibody, V domains shown)
VH: B1 VH with Q6E, H13Q, G24A, N58S, D103P, Y104W
VL: not shown
B5: L1013H1000 (antibody, V domains shown)
VH: B1 VH
VL: B2 VL with S31N, P57T, A96P, G97P
B6: L1021H1016 (antibody, V domains shown)
VH: B1 VH with D103P, Y104W
VL: B2 VL
B7: L1008H1000 (antibody, V domains shown)
VH: B1 VH
VL: not shown
B8: L1011H1000 (antibody, V domains shown)
VH: B1 VH
VL: B2 VL with S31N, D93G, H94S, A96P, G97P
B9: L1020H1027 (antibody, V domains shown)
VH: B1 VH with Q6E, G24A, N58S, M90T, D103P, Y104W
VL: B2 VL with F50Y, P57T
B10: L1021H1027 (antibody, V domains shown)
VH: B1 VH with Q6E, G24A, N58S, M90T, D103P, Y104W
VL: B2 VL
B11: L1015H1000 (antibody, V domains shown)
VH: B1 VH
VL: B2 VL with A96P, G97P
B12: L1021H1029 (antibody, V domains shown)
VH: B1 VH with Q6E, H13Q, G24A, N58S, D103P, Y104W
VL: B2 VL
B13: L1020H1020 (antibody, V domains shown)
VH: B1 VH with N58S, D103P, Y104W
VL: B2 VL with F50Y, P57T
B14: L1012H1000 (antibody, V domains shown)
VH: B1 VH
VL: not shown
B15: L1019H1000 (antibody, V domains shown)
VH: B1 VH
VL: B2 VL with S31N, P57T
B16: L1020H1000 (antibody, V domains shown)
VH: B1 VH
VL: B2 VL with F50Y, P57T
B17: L1020H1029 (antibody, V domains shown)
VH: B1 VH with Q6E, H13Q, G24A, N58S, D103P, Y104W
VL: B2 VL with F50Y, P57T
B18: L1016H1000 (antibody, V domains shown)
VH: B1 VH
VL: B2 VL with P57T, A96P, G97P
B19: L1024H1031 (antibody, V domains shown)
VH: B1 VH with Q6E, H13Q, G24A, N58S, M90T
VL: B2 VL with S31N
B20: L1020H1031 (antibody, V domains shown)
VH: B1 VH with Q6E, H13Q, G24A, N58S, M90T
VL: B2 VL with F50Y, P57T
B21: L1009H1000 (antibody, V domains shown)
VH: B1 VH
VL: not shown
B22: L1017H1000 (antibody, V domains shown)
VH: B1 VH
VL: not shown
B23: L1021H1020 (antibody, V domains shown)
VH: B1 VH with N58S, D103P, Y104W
VL: B2 VL
B24: L1012H1020 (antibody, V domains shown)
VH: B1 VH with N58S, D103P, Y104W
VL: not shown
B25: L1021H1000 (antibody, V domains shown)
VH: B1 VH
VL: B2 VL
B26: L1022H1000 (antibody, V domains shown)
VH: B1 VH
VL: B2 VL with S31N, F50Y, P57T
B27: L1012H1031 (antibody, V domains shown)
VH: B1 VH with Q6E, H13Q, G24A, N58S, M90T
VL: not shown
B28: L1024H1007 (antibody, V domains shown)
VH: B1 VH with N58S
VL: B2 VL with S31N
B29: L1024H1000 (antibody, V domains shown)
VH: B1 VH
VL: B2 VL with S31N
B30: L1010H1000 (antibody, V domains shown)
VH: B1 VH
VL: not shown
B31: L1021H1007 (antibody, V domains shown)
VH: B1 VH with N58S
VL: B2 VL
B32: L1020H1007 (antibody, V domains shown)
VH: B1 VH with N58S
VL: B2 VL with F50Y, P57T
B33: L1020H1016 (antibody, V domains shown)
VH: B1 VH with D103P, Y104W
VL: B2 VL with F50Y, P57T

Target: T1, soluble human IL-4Rα (sIL-4Rα; PEPRO …)
Assay: ELISA, coated sIL-4Rα, culture supernatant
Protocol: Sample to be tested: For each antibody of the present invention, 10 μl and 2 μl of the culture supernatant of Expi293 cells expressing the antibody after transient transfection (the medium was Expi293 Expression Medium, Invitrogen, Catalog Number: A1435102; suspension culture was performed for 4 days at 100 rpm in a 8% CO2 incubator) were respectively added to 990 μl and 998 μl of PBS to prepare antibody samples to be tested of 1:100 and 1:500 dilutions.
100 μl of 100 μg/ml sIL-4Rα solution was added to 9.90 ml of PBS, mixed up and down, and then an antigen coating buffer of 1.0 μg/ml was obtained. The prepared antigen coating buffer was added to a 96-well ELISA plate (Corning) with a volume of 100 μl per well. The 96-well ELISA plate was incubated overnight in a refrigerator at 4° C. On the next day, the solution therein was discarded, and PBS containing 2% BSA was added to the 96-well ELISA plate row by row with a volume of 300 μl per well. The 96-well ELISA plate was incubated for 2 hours in a refrigerator at 4° C. Then the PBS containing 2% BSA was discarded and the plate was washed 3 times with PBST. Diluted antibodies to be tested were sequentially added to the corresponding wells, while the normal cell culture supernatants, as negative control samples, were added too. Three duplicate wells were made for each sample with a volume of 100 μl per well. The ELISA plate was wrapped with preservative film (or covered) and incubated for 1 h at 10° C. in a constant temperature incubator. Subsequently, the 96-well ELISA plate was taken out, and the solution therein was discarded. After washing with PBST for 3 times, TMB solution (Solarbio, Catalog Number: PR1200) was added to the 96-well ELISA plate row by row with a volume of 100 μl per well. The 96-well ELISA plate was placed at room temperature for 5 minutes, and 2 M H2SO4 solution was added in immediately to terminate the reaction. The 96-well ELISA plate was placed in flexstation 3 (Molecular Devices), the values of OD450 were read, and the data were collected, calculated and analyzed. Results were expressed relative to the affinity of control antibody 1.

OD450/OD450 Control antibody 1	Binder
0.8 ratio to control antibody 1	B1
0.9 ratio to control antibody 1	B2
0.4 ratio to control antibody 1	B3
0.11 ratio to control antibody 1	B4
0.24 ratio to control antibody 1	B5
0.63 ratio to control antibody 1	B6
0.9 ratio to control antibody 1	B7
0.9 ratio to control antibody 1	B8
0.4 ratio to control antibody 1	B9
0.29 ratio to control antibody 1	B10
0.67 ratio to control antibody 1	B11
1 ratio to control antibody 1	B12
0.26 ratio to control antibody 1	B13
1.22 ratio to control antibody 1	B14
1.79 ratio to control antibody 1	B15
2.27 ratio to control antibody 1	B16
1.01 ratio to control antibody 1	B17

OD450/OD450 Control antibody 1	Binder
0.27 ratio to control antibody 1	B18
0.9 ratio to control antibody 1	B19
1.12 ratio to control antibody 1	B20
0.64 ratio to control antibody 1	B21
0.49 ratio to control antibody 1	B22
0.24 ratio to control antibody 1	B23
0.11 ratio to control antibody 1	B24
2.42 ratio to control antibody 1	B25
0.16 ratio to control antibody 1	B26
0.16 ratio to control antibody 1	B27
0.23 ratio to control antibody 1	B28
0.69 ratio to control antibody 1	B29
1 ratio to control antibody 1	B30
0.44 ratio to control antibody 1	B31
0.4 ratio to control antibody 1	B32
0.8 ratio to control antibody 1	B33
